From US20190367592A1 (AC IMMUNE, published 2019)
Positions count from the first letter of the chain named. Each block holds one binder with its values, some of them ahead of it. Where no end group is shown, it is not given here.

How the values were obtained:
[1] = target: T1, recombinant human Tau monomer, 2N4R isoform (amino acids 2-441) (human, UniProt P10636-8 2-441); assay: SPR, mIgG2a captured, Tau monomer analyte, 1:1 fit
T1 construct: range 2-441; N-terminal His-tag removed with TEV protease; also called monomeric Tau
How it was run: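 Antibodies in mIgG2a format captured on anti-mouse IgG surface at 1 μg/ml (30 or 45 s) or 0.1 μg/ml (70 or 150 s), 10 μl/min, in HBSP (10 mM HEPES pH7.4, 150 mM NaCl, 0.05% Tween 20). Tau monomer flowed as analyte; association 180-480 s, dissociation 300-600 s, 1:1 fit.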

0N4R Tau = target: T2, 0N4R Tau (human, UniProt P10636-6 1-383); assay: indirect or sandwich ELISA on recombinant human Tau isoforms
T2 construct: also called 0N-Tau

[2] = target: T3, full-length human Tau (flTau) (human, UniProt P10636-8 1-441); assay: SPR, hybridoma Ab on anti-IgG chip, flTau analyte
T3 construct: range 1-441; bought (SignalChem); also called human Tau-441
Experimental: Affinity of non-purified antibodies in serum-free hybridoma supernatants was estimated by surface plasmon resonance using a Biacore T-100 instrument (GE Healthcare, United Kingdom). Antibodies were immobilized onto an anti-IgG biosensor chip, and flTau (SignalChem, Canada) was used as the target analyte. Kinetic analysis was done using a 1:1 Langmuir fit model.
For affinity measurements to flTau, antibodies were measured using SPR on a Biacore instrument, with the KDs determined. Biacore affinity measurements were done by immobilizing antibodies on an anti-IgG chip and using flTau as the target analyte.

MAPT(10-24) = target: T4, MAPT(10-24) (human, also: biotinylated, site not given here); assay: ELISA on Tau 15-mer peptides, O.D.; conditions of this panel not given
T4 construct: also called Tau fragment 10-24
T4 peptide: VMEDHAGTYGLGDRK

Tau fragment 1-15 = target: T5, Tau fragment 1-15 (human, UniProt P10636-8 1-15); assay: as above
T5 construct: range 1-15
T5 peptide (looked up): MAEPRQEFEVMEDHA

Tau fragment 19-33 = target: T6, Tau fragment 19-33 (human, UniProt P10636-8 19-33, not fully specified); assay: as above
T6 construct: range 19-33
T6 peptide (looked up): GLGDRKDQGGYTMHQ

Tau fragment 28-42 = target: T7, Tau fragment 28-42 (human, UniProt P10636-8 28-42, not fully specified); assay: as above
T7 construct: range 28-42
T7 peptide (looked up): GYTMHQDQEGDTDAG

Tau fragment 37-51 = target: T8, Tau fragment 37-51 (human, UniProt P10636-8 37-51); assay: as above
T8 construct: range 37-51
T8 peptide (looked up): GDTDAGLKESPLQTP

[3] = target: T9, AVI-tag biotinylated oligomeric flTau (human, UniProt P10636-8 1-441, site-specific biotin on AVI-tag); assay: capture ELISA, antibody on anti-IgG plate, biotinylated oligoTau titrated, O.D.
T9 construct: also called oligoTau; oligomeric Tau
Experimental: For the oligoTau and monoTau capture ELISAs, antibodies contained in serum-free sterile hybridoma supernatants were immobilized on an anti-IgG coated plate at 500-fold dilution, followed by the incubation of oligoTau or monoTau, both with site-specific biotinylation via an AVI-tag. The target incubations started at 5 μg/mL and then were diluted 8- or 16-fold. Streptavidin-HRP and ABTS substrate was used for signal quantitation in a plate reader (Tecan, Switzerland). Results are expressed as O.D.

T3 sequence (P10636 other isoform, or with tags, fused parts or gaps limits assumed): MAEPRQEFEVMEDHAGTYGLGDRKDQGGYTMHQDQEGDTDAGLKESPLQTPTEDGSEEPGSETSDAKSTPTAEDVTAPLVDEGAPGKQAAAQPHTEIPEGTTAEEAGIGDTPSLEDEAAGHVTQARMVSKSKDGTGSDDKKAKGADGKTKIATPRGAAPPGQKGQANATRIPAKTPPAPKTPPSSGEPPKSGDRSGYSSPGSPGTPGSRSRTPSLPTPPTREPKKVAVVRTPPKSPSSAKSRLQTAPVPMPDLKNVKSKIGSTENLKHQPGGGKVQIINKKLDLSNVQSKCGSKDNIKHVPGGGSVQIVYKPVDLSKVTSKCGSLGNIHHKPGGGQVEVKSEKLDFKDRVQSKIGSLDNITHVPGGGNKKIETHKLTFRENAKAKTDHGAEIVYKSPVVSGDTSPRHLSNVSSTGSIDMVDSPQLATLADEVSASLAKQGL
T1 sequence (P10636 other isoform, or with tags, fused parts or gaps limits assumed): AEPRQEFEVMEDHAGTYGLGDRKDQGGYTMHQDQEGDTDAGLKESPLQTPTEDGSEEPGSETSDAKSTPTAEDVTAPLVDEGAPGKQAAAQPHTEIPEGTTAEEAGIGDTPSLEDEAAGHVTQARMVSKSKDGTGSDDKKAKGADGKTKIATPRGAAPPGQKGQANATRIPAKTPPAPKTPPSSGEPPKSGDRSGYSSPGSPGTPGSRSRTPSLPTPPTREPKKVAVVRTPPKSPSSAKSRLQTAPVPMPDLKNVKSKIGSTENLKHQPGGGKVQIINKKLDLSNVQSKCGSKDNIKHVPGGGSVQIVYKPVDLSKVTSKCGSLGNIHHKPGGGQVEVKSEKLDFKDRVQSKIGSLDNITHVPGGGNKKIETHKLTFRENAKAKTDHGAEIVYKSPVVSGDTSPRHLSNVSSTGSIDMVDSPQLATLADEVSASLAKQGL
T2 sequence (P10636 other isoform, or with tags, fused parts or gaps limits assumed): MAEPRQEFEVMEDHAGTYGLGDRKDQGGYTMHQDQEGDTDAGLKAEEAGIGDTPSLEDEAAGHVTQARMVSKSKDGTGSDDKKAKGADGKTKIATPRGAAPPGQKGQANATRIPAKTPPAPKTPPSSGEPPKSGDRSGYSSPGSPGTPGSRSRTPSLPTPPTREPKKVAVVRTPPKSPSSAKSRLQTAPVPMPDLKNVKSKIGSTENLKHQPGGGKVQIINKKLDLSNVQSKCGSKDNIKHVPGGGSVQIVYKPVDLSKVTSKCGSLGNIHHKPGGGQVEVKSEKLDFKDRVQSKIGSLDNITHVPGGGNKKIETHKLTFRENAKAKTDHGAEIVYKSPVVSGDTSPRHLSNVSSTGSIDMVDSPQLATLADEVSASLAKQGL

B1: 55E7-F11 (antibody, mouse IgG2a, V domains shown)
VH: EVKLEESGGGLVQPGGSMKLSCVASGFTFSNYWMNWVRQSPEKGLEWVAQIRLKSDNYATHYAESVKGRFTISRDDSKSSVYLQMNNLRAEDTGIYYCAGYFYGGYFDVWGTGTTVTVSS
VL: ELVLTQSPTTMAASPGKKITITCSASSSISSNYLHWYQQKPGFSPKLLIYRTSNLASGVPARFSGSGSGTSYSLTIGTMEAEDVATYYCQQGSSLPFTFGSGTKLEIK
Kd [1]: 171 nM
koff [1]: 0.04 s⁻¹
kon [1]: 200000 M⁻¹ s⁻¹
binding result (0N4R Tau): no binding (tested: not given)

B3: 19H6-F7 (antibody, mouse IgG2a, V domains shown)
VH: EVQLVESGGDLVKPGGSLKLSCAASGFTFSSYGMSWVRQTPDKRLEWVATISSGGTYTYYPDSVKGRFTISRDNAKNTLYLQMSSLKSEDTAMYYCAPSYDGAMDYWGQGTSVTVSS
VL: DVLMTQTPLSLPVSLGDQASISCRSSQSIVHSNGNTYLEWYLQKPGQSPKLLIYKVSNRFSGVPDRFSGSGSGTDFTLKISRVEAEDLGVYYCFQGSLVPWTFGGGTKLEIK
Kd [2]: 39 nM
Kd [1]: 10 nM
koff [1]: 0.002 s⁻¹
kon [1]: 200000 M⁻¹ s⁻¹
binding result (MAPT(10-24)): binds
binding result (Tau fragment 1-15): no binding (tested: not given)
binding result (Tau fragment 19-33): no binding (tested: not given)
binding result (Tau fragment 28-42): no binding (tested: not given)
binding result (Tau fragment 37-51): no binding (tested: not given)
EC50 (read off the curve) [3]: ~0.2 µg/mL

B5: 3A4-H4 (antibody, mouse IgG2a, V domains shown)
VH: B3 VH with Y95F, P98T
VL: B3 VL with S28N, S97T
Kd [2]: 7.8 nM
Kd [1]: 12 nM
koff [1]: 0.0003 s⁻¹
kon [1]: 30000 M⁻¹ s⁻¹
binding result (Tau fragment 1-15): no binding (tested: not given)
binding result (Tau fragment 19-33): no binding (tested: not given)
binding result (Tau fragment 28-42): no binding (tested: not given)
binding result (Tau fragment 37-51): no binding (tested: not given)
EC50 (read off the curve) [3]: ~0.09 µg/mL

B8: 211G6-B6 (antibody, V domains shown)
VH: QVQLKESGPGLVAPSQSLSITCTVSGFSLTSYAISWVRQPPGKGLEWLGVIWTGGGTNYNSALKSRLSITKDNSKNQVFFRMNSLQTDDTARYYCARKKLYDYDGGYFFDYWGQGTTLTVSS
VL: DIVMSQSPSSLAMSVGEKVTMSCKSNQSLLYSSNQKNYLAWYQQKPGQSPKLLIYWASTRESGVPDRFTGSGSGTDFTLTISSVKAEDLAVYYCHQYYSYPWTFGGGTKLEIK
Kd [2]: 4.7 nM
binding result (0N4R Tau): no binding (tested: not given)

B10: 89F4-A1 (antibody, mouse IgG2a, V domains shown)
VH: EVQLVESGGGLVQPKGSLKLSCAASGFTFNTYAMNWVRQAPGKGLEWVARIRSKSNNYAAYFADSVKDRFTISRDDSQTMLYLQMNNLKSEDTAMYYCVSGGNYVPFAYWGQGTLVTVSA
VL: NIMMTQSPSSLAVSAGEKVTMSCKSSQSVFYSSEQRNYLAWYQQKPGQSPKLLISWASTRESGVPDRFTGSGSGTDFTLTISSVQGEDLAVYYCHQYLSSFTFGSGTKLEIK
Kd [2]: 2.9 nM
Kd [1]: 27 nM
koff [1]: 0.007 s⁻¹
kon [1]: 300000 M⁻¹ s⁻¹
binding result (MAPT(10-24)): no binding (tested: not given)
binding result (Tau fragment 1-15): no binding (tested: not given)
binding result (Tau fragment 19-33): no binding (tested: not given)
binding result (Tau fragment 28-42): binds
binding result (Tau fragment 37-51): binds

B11: 30D12-B5 (antibody, V domains shown)
VH: EVQLQQSGAELVKPGASVKLSCTTSGFNIKDTYMHWVKQRPEQGLEWIGGIDPANGNTKYDPKFQGKATITADTSSNTAYLQLSSLTSEDTAVYYCAHGNFVYWGQGTLVTVSA
VL: DVVMTQTPLSLSVTIGQPASISCKSSQSLLYSNGKTYLNWFQQRPGQAPKHLMYQVSKLDPGIPDRFSGSGSETDFTLKISRVEAEDLGVYYCLQGTYYPLTFGAGTNLELK
notes: hybridoma supernatant
Kd [2]: 2 nM
binding result (0N4R Tau): no binding (tested: not given)

Continued, values first:

Kd [2]: 2 nM
binding result (0N4R Tau): no binding (tested: not given)
B2: 72E12-H9 (antibody, V domains shown)
VH: B1 VH
VL: B1 VL
notes: hybridoma supernatant

Kd [2]: 0.8 nM
binding result (0N4R Tau): no binding (tested: not given)
B4: 12A10-E8 (antibody, V domains shown)
VH: QIQLVQSGPELKKPGETVKISCKASGYTFTNYGMNWVKQAPGKGLKWMGWINMYTGEPTYGDDFKGRFVFSLETSVSTVYLQINNLKKEDTATFFCARGGRPDYWGQGTSVTVSS
VL: B3 VL with S57F, S81N, F94L, L98H, W101Y
notes: hybridoma supernatant

Kd [2]: 1.8 nM
Kd [1]: 52 nM
koff [1]: 0.02 s⁻¹
kon [1]: 400000 M⁻¹ s⁻¹
binding result (MAPT(10-24)): no binding (tested: not given)
binding result (Tau fragment 1-15): no binding (tested: not given)
binding result (Tau fragment 19-33): binds
binding result (Tau fragment 28-42): binds
binding result (Tau fragment 37-51): no binding (tested: not given)
B6: 123E9-A1 (antibody, mouse IgG2a, V domains shown)
VH: EVQLQQSGPELVKPGASVKMSCKASGYTFTDYYMKWVKQSHGKSLEWIGDIDPNNGGTSYNQKFKGKATLTVDKSSSTAYMQLNSLTSEDSAVYYCARSAGFGDSFSFWGLGTLVTVSA
VL: B3 VL with V90F, L98H, W101P

Kd [2]: 1.5 nM
Kd [1]: 0.6 nM
koff [1]: 0.0002 s⁻¹
kon [1]: 300000 M⁻¹ s⁻¹
binding result (MAPT(10-24)): binds
binding result (Tau fragment 1-15): no binding (tested: not given)
binding result (Tau fragment 19-33): no binding (tested: not given)
binding result (Tau fragment 28-42): no binding (tested: not given)
binding result (Tau fragment 37-51): no binding (tested: not given)
B7: 54C1-H11 (antibody, mouse IgG2a, V domains shown)
VH: B3 VH with L20V, A23V, S30R, E46D, T56N, P98S, D101S
VL: B3 VL with V2T, L3V, T7S, K55T, L98H

Kd [2]: 1.9 nM
Kd [1]: 6 nM
koff [1]: 0.0003 s⁻¹
kon [1]: 50000 M⁻¹ s⁻¹
binding result (MAPT(10-24)): binds
binding result (Tau fragment 1-15): binds
binding result (Tau fragment 28-42): no binding (tested: not given)
binding result (Tau fragment 37-51): no binding (tested: not given)
B9: 94B2-C1 (antibody, mouse IgG2a, V domains shown)
VH: EVQLQQSGPELVKPGASMKISCKASGYSLTGYTMNWVKQSHGKNLEWIGLISPYNGVTSYNQKFKGKATLTVDKSSNTAYMELLSLTFEDSAVYYCARQGAYWGQGTLVTVSA
VL: not shown

Kd [2]: 0.5 nM
binding result (0N4R Tau): no binding (tested: not given)
B12: 77D1-D2 (antibody, V domains shown)
VH: EVQLQQSVAELVRPGASVTLSCTSSGFNIKNTYMHWVIQRPEQGLEWIGKIDPAIVNTKYAPKFQGKATITADTSSNTAYLQLSSLTSEDTGIYYCAEGALLYWGLGTSVTVSS
VL: B11 VL with Y31H, F41L, H51L, Q55L, L59V, L94F, L101H, A105G, N108K, L111I
notes: hybridoma supernatant
